± gives the uncertainty stated by the source.
Assay: self-splicing fitness, log relative to wild type (ln ratio); higher = more splicing; Tetrahymena group I intron in knt gene, E. coli kanamycin selection, DiMSum; sequences stand for … in CUCUCU…GGAGGGAAAAGUUAUCAGGCAUGCACCUGGUAGCUAGUCUUUAAACCAAUAGAUUGCAUCGGUUUAAAAGGCAAGACCGUCAAAUUGCGGGAAAGGGGUCAACAGCCGUUCAGUACCAAGUCUCAGGGGAAACUUUGAGAUGGCCUUGCAAAGGGUAUGGUAAUAAGCUGACGGACAUGGUCCUAACCACGCAGCCAAGUCCUAAGUCAACAGAUCUUCUGUUGAUAUGGAUGCAGUUCACAGACUAAAUGUCGGUCGGGGAAGAUGUAUUCUUCUCAUAAGAUAUAGUCGGACCUCUCCUUAAUGGGAGCUAGCGGAUGAAGUGAUGCAACACUGGAGCCGCUGGGAACUAAUUUGUAUGCGAAAGUAUAUUGAUUAGUUUUGGAGUACUCGUGGUCG
Outline: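 DiMSum derived fitness as the error-weighted combination of fold changes across replicates, kanamycin versus no kanamycin, normalised to wild type. E. coli BL21(DE3) held the library, which randomised all eight P1ex-region intron nucleotides within the knt kanamycin-resistance gene on pET-22b(+). Six replicate transformations grew overnight at 37°C or 30°C on LB agar with or without 25 μg/mL kanamycin, also containing 100 μg/mL carbenicillin, 50 μM IPTG and 0.2% rhamnose, and pooled colonies were amplicon-sequenced on an Illumina HiSeq 2500.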

CGGUAGCAAUAUUACGGGUG
self-splicing fitness (ln) (30 °C): -0.483 ± 0.068 | self-splicing fitness (ln) (37 °C): 0.146 ± 0.077

CAAGAGCAAUAUUACGUGCC
self-splicing fitness (ln) (30 °C): -3.59 ± 0.32 | self-splicing fitness (ln) (37 °C): -3.51 ± 0.39

CCCUAGCAAUAUUACGCACA
self-splicing fitness (ln) (30 °C): -2.5 ± 0.14 | self-splicing fitness (ln) (37 °C): -1.97 ± 0.15

CCUAAGCAAUAUUACGCAAG
self-splicing fitness (ln) (30 °C): -4.71 ± 0.46

UCGGAGCAAUAUUACGAGGC
self-splicing fitness (ln) (30 °C): -2.74 ± 0.42

AAAUAGCAAUAUUACGGUCG
self-splicing fitness (ln) (30 °C): -0.942 ± 0.065 | self-splicing fitness (ln) (37 °C): -0.272 ± 0.095

AGACAGCAAUAUUACGGCUA
self-splicing fitness (ln) (30 °C): -0.252 ± 0.08 | self-splicing fitness (ln) (37 °C): -0.286 ± 0.083

UUAAAGCAAUAUUACGAGCC
self-splicing fitness (ln) (30 °C): -2.3 ± 0.15 | self-splicing fitness (ln) (37 °C): -1.42 ± 0.27

GGAUAGCAAUAUUACGGUAC
self-splicing fitness (ln) (30 °C): -1.59 ± 0.14 | self-splicing fitness (ln) (37 °C): 0.179 ± 0.13

GGCCAGCAAUAUUACGUCAG
self-splicing fitness (ln) (30 °C): -1.91 ± 0.13 | self-splicing fitness (ln) (37 °C): -2.98 ± 0.33

UAGAAGCAAUAUUACGCAUC
self-splicing fitness (ln) (30 °C): -3 ± 0.23 | self-splicing fitness (ln) (37 °C): -3.37 ± 0.31

GCAUAGCAAUAUUACGGGGU
self-splicing fitness (ln) (30 °C): -3.74 ± 0.23 | self-splicing fitness (ln) (37 °C): -1.99 ± 0.13

UUGUAGCAAUAUUACGUCGC
self-splicing fitness (ln) (30 °C): -3.54 ± 0.46

CUACAGCAAUAUUACGCAUC
self-splicing fitness (ln) (30 °C): -3.65 ± 0.27 | self-splicing fitness (ln) (37 °C): -1.5 ± 0.16

UGGCAGCAAUAUUACGCGGG
self-splicing fitness (ln) (30 °C): -2.76 ± 0.27 | self-splicing fitness (ln) (37 °C): -1.48 ± 0.24

GAUUAGCAAUAUUACGGGAU
self-splicing fitness (ln) (30 °C): -2.76 ± 0.2 | self-splicing fitness (ln) (37 °C): -1.14 ± 0.18

AUUGAGCAAUAUUACGCGCG
self-splicing fitness (ln) (30 °C): -3.04 ± 0.21 | self-splicing fitness (ln) (37 °C): -2.22 ± 0.16

GUAGAGCAAUAUUACGCUGU
self-splicing fitness (ln) (30 °C): -1.88 ± 0.2 | self-splicing fitness (ln) (37 °C): -0.607 ± 0.22

GGAGAGCAAUAUUACGAACU
self-splicing fitness (ln) (30 °C): -1.36 ± 0.31 | self-splicing fitness (ln) (37 °C): -1.92 ± 0.37

ACCGAGCAAUAUUACGUGGU
self-splicing fitness (ln) (30 °C): -3.77 ± 0.17 | self-splicing fitness (ln) (37 °C): -2.05 ± 0.18

GCCUAGCAAUAUUACGGCAC
self-splicing fitness (ln) (30 °C): -1.31 ± 0.17 | self-splicing fitness (ln) (37 °C): -0.195 ± 0.14

ACUUAGCAAUAUUACGCGGC
self-splicing fitness (ln) (30 °C): -2.71 ± 0.25 | self-splicing fitness (ln) (37 °C): -1.12 ± 0.23

CCUCAGCAAUAUUACGGCUG
self-splicing fitness (ln) (30 °C): -3.84 ± 0.21 | self-splicing fitness (ln) (37 °C): -2.36 ± 0.18

GCGUAGCAAUAUUACGGAUC
self-splicing fitness (ln) (30 °C): -0.345 ± 0.079 | self-splicing fitness (ln) (37 °C): 0.215 ± 0.088

AUAGAGCAAUAUUACGUCUU
self-splicing fitness (ln) (30 °C): 0.446 ± 0.074 | self-splicing fitness (ln) (37 °C): 0.419 ± 0.087

UUUUAGCAAUAUUACGAUUU
self-splicing fitness (ln) (30 °C): -1.67 ± 0.16 | self-splicing fitness (ln) (37 °C): -0.611 ± 0.21

ACGUAGCAAUAUUACGAGUC
self-splicing fitness (ln) (30 °C): -3.3 ± 0.4 | self-splicing fitness (ln) (37 °C): -3.2 ± 0.35

CUGAAGCAAUAUUACGAUAU
self-splicing fitness (ln) (30 °C): -3.39 ± 0.16 | self-splicing fitness (ln) (37 °C): -1.27 ± 0.19

UUGUAGCAAUAUUACGUGCU
self-splicing fitness (ln) (30 °C): -3.17 ± 0.27 | self-splicing fitness (ln) (37 °C): -1.54 ± 0.21

UUCCAGCAAUAUUACGGAGG
self-splicing fitness (ln) (30 °C): -3.51 ± 0.17 | self-splicing fitness (ln) (37 °C): -1.03 ± 0.1

CAGCAGCAAUAUUACGAGUC
self-splicing fitness (ln) (30 °C): -4.41 ± 0.29 | self-splicing fitness (ln) (37 °C): -2.24 ± 0.14

GGCCAGCAAUAUUACGAGCG
self-splicing fitness (ln) (30 °C): -0.269 ± 0.098 | self-splicing fitness (ln) (37 °C): 0.191 ± 0.13

ACCAAGCAAUAUUACGGAUC
self-splicing fitness (ln) (30 °C): -3.49 ± 0.14 | self-splicing fitness (ln) (37 °C): -1.28 ± 0.1

AUAUAGCAAUAUUACGUCCU
self-splicing fitness (ln) (30 °C): -0.548 ± 0.11 | self-splicing fitness (ln) (37 °C): 0.119 ± 0.12

UCCCAGCAAUAUUACGGUUG
self-splicing fitness (ln) (30 °C): -2.97 ± 0.17 | self-splicing fitness (ln) (37 °C): -1.79 ± 0.15

GCCAAGCAAUAUUACGCGCC
self-splicing fitness (ln) (30 °C): -3.75 ± 0.27 | self-splicing fitness (ln) (37 °C): -2.56 ± 0.32

UUAGAGCAAUAUUACGUUCU
self-splicing fitness (ln) (30 °C): -4.07 ± 0.27 | self-splicing fitness (ln) (37 °C): -2.92 ± 0.3

GAUCAGCAAUAUUACGUACC
self-splicing fitness (ln) (30 °C): -0.223 ± 0.073 | self-splicing fitness (ln) (37 °C): -0.245 ± 0.099

UAUCAGCAAUAUUACGCCCU
self-splicing fitness (ln) (30 °C): -0.754 ± 0.11 | self-splicing fitness (ln) (37 °C): -0.333 ± 0.14

From the supplement of paper PMC7877785
